Reference: the DeepSol protein solubility set

Test: soluble on expression in E. coli; label from the status in PepcDB or PDB records

| Sequence | soluble on expression in E. coli |
| --- | --- |
| MSLTHTVHLHLEETDNLALQRLCGSFDNNLDLLAKALDIHISRRFEHFTFNGAFAHAGKRALLKLLETAQTRDLNDGDIRLAAVEAQTEDAGHQEKNHDHAYYFRTKRGSIGGRTPRQNGYIRALLNHDIVFGLGPAGTGKTYLAVAAAVDAMEKHQVERIILVRPAVEAGEKLGFLPGDLTQKVDPYLRPLYDALYDLMGFDRVTKLIEKGLIEIAPLAYMRGRTLNGAYIILDEAQNTTPEQMKMFLTRIGFGAKAVITGDTSQIDLPKNIKSGLKDAREKLHNVEGLYFHTFTGEDVVRHPLVQKIVEAYESAEHDEGGSHHHHHH | soluble |
| SEVRWCATSDPEQHKCGNMSEAFREAGIQPSLLCVRGTSADHCVQLIAAQEADAITLDGGAIYEAGKEHGLKPVVGEVYDQEVGTSYYAVAVVRRSSHVTIDTLKGVKSCHTGINRTVGWNVPVGYLVESGRLSVMGCDVLKAVSDYFGGSCVPGAGETSYSESLCRLCRGDSSGEGVCDKSPLERYYDYSGAFRCLAEGAGDVAFVKHSTVLENTDGKTLPSWGQALLSQDFELLCRDGSRADVTEWRQCHLARVPAHAVVVRADTDGGLIFRLLNEGQRLFSHEGSSFQMFSSEAYGQKDLLFKDSTSELVPIATQTYEAWLGHEYLHAMKGLLCDPNRLPPYLRWCVLSTPEIQKCGDMAVAFRRQRLKPEIQCVSAKSPQHCMERIQAEQVDAVTLSGEDIYTAGKKYGLVPAAGEHYAPEDSSNSYYVVAVVRRDSSHAFTLDELRGKRSCHAGFGSPAGWDVPVGALIQRGFIRPKDCDVLTAVSEFFNASCVPVNNPKNYPSSLCALCVGDEQGRNKCVGNSQERYYGYRGAFRCLVENAGDVAFVRHTTVFDNTNGHNSEPWAAELRSEDYELLCPNGARAEVSQFAACNLAQIPPHAVMVRPDTNIFTVYGLLDKAQDLFGDDHNKNGFKMFDSSNYHGQDLLFKDATVRAVPVGEKTTYRGWLGLDYVAALEGMSSQQC | soluble |
| MSLATSRTVLPDDLLINASDEVLTRQDLVLTALGRRPADRLLRVGRLLDVHSRTWLDDQEIVIKGRRIAYVGPAGSYAGEVNERFSEPDLAAVPGFGEAHKHIESSHLTPEWEAALVMPHGVTWTCEASHEFSNVNGARNLEFWLEARRRGSPMKIFPLPGSAVPPTAYEWGGGWFGYDEQKAFLSESLMVAGLDEVMDWPSISDPGNPSYDRLWGMIGATFEQRGVVEGHGAGLRDMASINAFAAAGLASDHEGWFLDEIWQKLLHGLFIELRPHSLPEVIRGLIDKGLTDWSQIALVTDDRSASDTLKIGATDHNVRLAIENGLAPETAIQCVTLNPARHMRLTPWVGSIAPGRFADIVLLSDVASLSIEKVWADGRPASEGATFIGVRPEIDWPQWATRTVKIDRTVTADDFRIEAPPNRTTVNAALLRPFHWHDDFITMELPVEEGAVQRDAARNVTKFSIVDRFSGEARVSRMFWLGTGPRTPETALASTLGHDKHNIWTVGSSDEAMAISVNALNEQQGGWVLVSGGKILARVRYEVGGLMTARSAEALDAEMQALYAAGAGIDWMYEPTFSPRWWPGFPERLSFATLTCSPWRWVLVAPSELAPDGFVNVLTGKTHPIVWEGHHHHHH | soluble |
| MLVGERLENEPNFYQEIDFLKHLAGINGVPVVHKHFQYEQKRVLVMDKYLENLEQFRKRKEDEKLSPRVVIKLAFRLVSILEHIHRKGVVHQDIKLDNVVFGAKVGNKLDIVLIDYGIAAFTKPKPPRDLVDGALHCTTDFSSSVYASPGLVQGLKGDPVDDLQMLSFMLLWASKYNPFGEDSLESLRKKKEFIAKPSIFTQGDYKFLRPVISKIMEQKRSKRPDYKAISKKCANKDNYFNPDTAVHLGNAYEFF | not soluble |
| MGSDKIHHHHHHMTVLILTNPFDITADDVILRLTERGVPVVRLDPADFPQQVVLHSEIGGNGWTGTLTTPHRILDLSTVTGIWYRRPRKFRLPAQMSQAEYEFAATEARRGFGGIINSLTGWINHPSAIGRAEYKPYQLHHAVQAGLNVPRTLITNDPKQAKGWCARVGDVVYKPLSAPSWLENGDTYVVFTTPITPDQWGDPAIGRTAHMFQQRLDKEFEVRLTMVDGKAFPAAIHAHSDAARIDWRSDYDALTYSIPTVPQRVLTGARDLLRRLHLRYAALDFIVSPDGRWHFLEVNPNGQYGWIEEHTGQPISDAIADALTRKEN | not soluble |
| MSLKKEYLQCQSLVDVVRLRALHSPNKKSCTFLNKELEETMTYEQLDQHAKAIAATLQAEGAKPGDRVLLLFAPGLPLIQAFLGCLYAGCIAVPIYPPAQEKLLDKAQRIVTNSKPVIVLMIADHIKKFTADELNTNPKFLKIPAIALESIELNRSSSWQPTSIKSNDIAFLQYTSGSTMHPKGVMVSHHNLLDNLNKIFTSFHMNDETIIFSWLPPHHDMGLIGCILTPIYGGIQAIMMSPFSFLQNPLSWLKHITKYKATISGSPNFAYDYCVKRIREEKKEGLDLSSWVTAFNGAEPVREETMEHFYQAFKEFGFRKEAFYPCYGLAEATLLVTGGTPGSSYKTLTLAKEQFQDHRVHFADDNSPGSYKLVSSGNPIQEVKIIDPDTLIPCDFDQVGEIWVQSNSVAKGYWNQPEETRHAFAGKIKDDERSAIYLRTGDLGFLHENELYVTGRIKDLIIIYGKNHYPQDIEFSLMHSPLHHVLGKCAAFVIQEEHEYKLTVMCEVKNRFMDDVAQDNLFNEIFELVYENHQLEVHTIVLIPLKAMPHTTSGKIRRNFCRKHLLDKTLPIVATWQLNKIEEGHHHHHH | soluble |
| MSKKLLIKTWGCQMNEYDSSKMADLLNAANGYELTEEPEEADVLLLNTCSIREKAQEKVFHQLGRWKTLKDKKPGVVIGVGGCVATQEGDHIRERAPYVDVIFGPQTLHRLPEMIKQSQTDDAPVMDISFPEIEKFDRLPEPRAEGATAFVSILEHHHHHH | not soluble |
| KRMYNREKLRKLFDKEETPEVTGLKDNQERFFTYSIRAAHMNINTKSNIKVLKNGEETFPDIFKAMRKAESYIHIEYYMFKSDMLGRGMMDIMMEKARQGVEVRFLYDAAGSMKLARRDIMRMKQAGVDIVPFSPLKYGFFNQKLNFRNHRKIVIIDGKTGFVGGLNVGKEYISRDPYIGFWRDTHLRLEGEIVQTLHAIFMLDWEYVSNEVLIDQEEYNTPVPVEGGGIYQIVATGPDMKESMSDLYYEMISSAQKSIWIATPYFVPNESIRTALKAAATKGVEVRVMVPEKNDSFLTQYASRSYFPELLLEGIEVYSYQKGFMHQKVMIIDGDLASVGTANMDMRSFQLNFEVNVFFTDAEAIRTLEAHFEEDMQESEKLSPVGFYKRGVADR | not soluble |
| IRRKINANVYDKVVLYAPTWRGIHGKATLDIEKLKNDLEKLADQDCHIVFRGHHMIEKLVSEQNISGITIVPSEIDTNELLGAIDILITDYSSIAFDFFVMNRPVIYYAYDIEQYNNERGLYFPLNELPGTVCFNDVELLNTLSGYLRNEIYFDASKGIDKFCKNDDGSVCGKVIEWFFF | not soluble |
| MGHHHHHHSHMSVAGGEIRGDTGGEDTAAPGRFSFSPEPTLEDIRRLHAEFAAERDWEQFHQPRNLLLALVGEVGELAELFQWKTDGEPGPQGWSPRERAALQEELSDVLIYLVALAARCRVDLPLAVLSKMDINRRRYPAHLARSSSRKYTELPHGAISEDQAVGPADIPCDSTGQTST | soluble |
| MGSDKIHHHHHHMKNIIGILGVFILAISCSGGKKESADAGLELTEDSVVYLLADNVTLGIKALFPFIDKDGHEYLTFQNQLEPEICVYDLQSGEFVKSIFFDREGANGVGMFGGYHIIDFDEIYLPSLQQSKVFVMEESGKKKREIITEKTDDGIPLLPFGAITFAYRPIYFNNGKMYIPQTVNMRLGNKVMEKSPVYVVVDTVKNVLSPFSIKFPPIMSSDDVTKPSLGNELSYSCCLNDKDQFVFSFFFDEDIYVVSLQDGEMKKIKVKSRYIDKPAIKENPPQDFDGAMKASSEIPCYGNLIYDKYRKVYYRFVYLKADLDGEKNYLNIWQYGRKSFSIMILNEDFDVIGETRFPDFTYISTLHYIGKDGLYLSDSHYKNPSFDENKLRFRRFKLVHYNKK | not soluble |
| FKYIQKIAKTEIKREEVPDVKDIISAKKIKIISGIKEVLESGKYADCEKMASDLLEDADPQEVLSAVLKYALKDELS | not soluble |
| MAHHHHHHMYNPALPNHYRGVVFAAYVRRRQREEAAAAQQQRQPNALASALSASSLAAPSMASVTAPLLGLSAEELHQHRIKESAALGIQRAVMMEKEALEVEHKKRKLEGSDARSRISSRLDKLKALAAKSKAVTGVSASLDAGDAILQAGGPSSPTSSQRTSSSSFDAEAAPSAPLVFQRSSLAAGGYVMAAADPSLPGMLLRTKTRSAVQGKPSSTLLLRFLHDSPVLGWKEAAIAEASTLSSAESSLCAPVLSQVQQLCRRFGFVRSMAAHVYAEDVVTAALARARSQTSAETQVPSAEAVRREQLRVWVRFDSVTEAFKAAESLAKEVSPATPAGRPVFAVAFYPTGLYDSGALELREEDLLSPSA | not soluble |
| MGSDKIHHHHHHMKYLPLGSTGLTVSECGFGCIPIIRLPQDEAVRVLRHAFDRGITFFDTANAYRDSEEKMGIAFAGIRHKLVIATKSLLRSAEGVTGHVENSLRKLGTDYLDLYQLHQIAQEKDWAEVTGPSGALEAAMAAKAAGKVRHVGVTSHNLEMALKLVRTGLFDTIQFPFNLIEEGAKDELLGAARDAGMAFICMKPFGGGVIDNAAVAFTYLRSHDGIFPIPGFESCAQVDEVLSFYERDNVVTEQDLAIMEQYRRELGKRFCRRCEYCQPCPQGVMITPAMGYPIVASRMSPAVAAEFCSKAMETVPLCTECGACIARCPYELPISDILKANYAMYRGHVAGSQGGFAGGKSS | not soluble |
| MNSKSAQGLAGLRNLGNTCFMNSILQCLSNTRELRDYCLQRLYMRDLHHGSNAHTALVEEFAKLIQTIWTSSPNDVVSPSEFKTQIQRYAPRFVGYNQQDAQEFLRFLLDGLHNEVNRVTLRPKSNPENLDHLPDDEKGRQMWRKYLEREDSRIGDLFVGQLKSSLTCTDCGYCSTVFDPFWDLSLPIAKRGYPEVTLMDCMRLFTKEDVLDGDEKPTCCRCRGRKRCIKKFSIQRFPKILVLHLKRFSESRIRTSKLTTFVNFPLRDLDLREFASENTNHAVYNLYAVSNHSGTTMGGHYTAYCRSPGTGEWHTFNDSSVTPMSSSQVRTSDAYLLFYELASPPSRMAAALEHHHHHH | soluble |
| MRSRPTEGNLLVSIGIPFLNPGPYLDLAVRSVFAQTYLNWELILVDDGSTDGSYERAVAIQDPRVRVLRDGQNKGLPARLNEIVRLAKGELVARMDADDAMHPLRLEKQVGFLQANPELDGVTTGAYLIDAEDRPIALLPGRQPSAQEVLARGGFLHPSLLARKSWFEAHPYSLDYPRAEDRELFVRTFKTSRLHVLSEPLYFYRWFGVPRGKTLRIGYRSERKVMWKYGPNLVGWGPSLRLIALSFGKELLTWFLEWTHLEKGFQTRRAFQPLLEMDQREALRTLKVIRETCVPGWDLEHHHHHH | not soluble |
| MESPLGSDLARLVRIWRALIDHRLKPLELTQTHWVTLHNIHQLPPDQSQIQLAKAIGIEQPSLVRTLDQLEDKGLISRQTCASDRRAKRIKLTEKADALIAEMEEVIHKTRGEILAGISSEEIELLIKLIAKLEHNIMELHSHD | not soluble |
| MGDIEGSSSAAQSAQPEETGETNADKTGFFTRIMDAFSSGESQQEPTLGGASAAPVPVPGILNLRRMRVEDVAIPTAEIVSVPLTVSKEELVHVFRDSGMTRIPVYENTLDTPLGFVHLKDFALTHGFNGNSTQFDLRSMLRPLLFVPPSMPIGVLLAKMQTERRHMALVIDEYGGVDGLLTIEDLIEQVVGEIEDEHDTDEAQTWVKERPGCYIAQARTPLDEFETEIGRSLTNHEDVDEEEIDTLGGLVFMLSGRVPARGEVVPHPDGVEFEVIDADPRRIKRLRVMIPDAAE | not soluble |
